The nanobody polyreactivity screen of Harvey et al. (2022)

Assay: yeast display, Sf9 membrane polyspecificity reagent, FACS + sequencing; frameworks hold sequencing errors
In short: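 In a synthetic yeast display library (Saccharomyces cerevisiae BJ5465), nanobody expression was induced with galactose for 36–48 hours. FACS gates were set low and high (top ~1%) using anti-HA fluorescence for expression and streptavidin fluorescence for binding of the Sf9 membrane reagent. Each polyreactivity label is drawn from the gate of origin.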

| Sequence | polyreactivity (PSR sort gate) |
| --- | --- |
| QVQLVDSGGGLVQAGGSLRLSCAASGSTFKYYGMGWYRQAPGKERELVASISSSGTRTYYADSVKGRFTISRDNAKNTVYLQMNSLKAEDTAVYYCAADSYATYFLYDSWGQGTQVTVSS | low polyreactivity |
| QVQLVDSGGGLVQAGGSLRLSCAASGSTFRRNAMGWYRHAPGKERELVAAINRRGGDTYYADSVKGRFTISCDNAKNTVYLQMNSLKPEDTAVYYCAAEWQSVAFDWGGYGDDYWGQGTQVTVSS | low polyreactivity |
| QVQLVDSGGGLVQAGGSLRLSCAASGSTFVYYAMGWYRQAPGKERELVAAITWNGGSTYYADSVKGRFTISRDNAKNTVYLQMNSLKPEDTAVYYCNAEYPVYFEGYPYYWDYWGDSWGQGTQVTVSS | high polyreactivity |
| QVQLVDSGGGLVQAGGSLRLSCAASGSTIKYYAMGWYRQEPGKERELVAAINWSGDSTYYADSVKGRFTISRDYAKITVYLQKISLKPEDTAVYYCAVRYQKRAYYGSNYWGQGTQVTVSS | high polyreactivity |
| QVQLVDSGGGLVQAGGSLRLSCAASGSTYGLYAMGWYRQATGKERELVAAITWRASSTYYADSVKGRFTISRDNAKNTVFLQMNSLKPEDTAVYYCAATWYSRFSRGDYDYWGQGTQVTVSS | high polyreactivity |
| QVQLVDSGGGLVQAGGSLRLSCAASGYTFGNNARAWYRQAPGKERELVARIRTNGGTTYYADSVKGRFTISRDNAKYTVYLQMNSLKPEDTAVYYCNAYRGYEYDYWGQGTQVTVSS | low polyreactivity |
| QVQLVDSGGGLVQAGGSLRLSCADSGRTFWGYGKGWYRQATGKERELVATISSGGSTYYADSVKGRFTISRDNAKNTVYLQMNSLKPEDTAVYYCAARPPPTYWRYQSDYWGQGTQVTVSS | high polyreactivity |
| QVQLVDSGGGLVQAGGSLRLSCADSGSIFGVYAMGWYRQATGKESELVAAISISDGITYYADSVKGRFTISRDNAKNNVYLQMNSLKPEDTAVYYCAAELSPYYYGESYDYWGQGTQVTVSS | high polyreactivity |
| QVQLVDSGGGLVQAGGSLRLSCAPSGFTIYKYVMGWDRQAPGKDREVVAAITTCGGSTYYADSVKGRFTISRDYAKNTVYLQMNSLKPEHTAVDYCNARSLHTSEGDYWGQGTQVTVSS | low polyreactivity |
| QVQLVDSGGGLVQAGGSLRLSCGASGFIIARNAMGGYRHPPGKERELVAAISRNGGRTSYADSVKGRFTISRDTAKNTVYLQMNSLNPEDTAVYYCAKAQGYVTWTGAYAYDYWGQGTQVTVSS | high polyreactivity |
| QVQLVDSGGGLVQAGGSLRLSCSASGITNGRNTMGLYRQAPGKERELVAAIDSGGNTYADSVKGRFTISRDNAKNTVYLQMNSLKPEDTAVYYCAVDGGEFSSYGYWGQGTQVTVSS | low polyreactivity |
| QVQLVDSGGGLVQAGGSLRLSFAASGSTFHTYAMGWYRQAPGTERELVATNTWDGGRTYYADSVKGRFTISRDIAKYTVYLQMNSLKPEDTAVYYCASVYWSIEMDYWGQGSQVTVSS | low polyreactivity |
| QVQLVDSGGGLVQAGGSLRLSSAASGITFQRYAMGWYRQAPGKERELVAGINGRGGSTYYADSVKGRFTISRDNAKNTVYLQMNSLKPEDTAVYYCNAVYAGRYFGFDYWGQGTQVTVSS | high polyreactivity |
| QVQLVDSGGGLVQAGGSLRLTCAASGSTYYRNAMGWYRQAPGKETEFVAAISFRGGGTYADSVKGRFTISRDNAKNTVYLQMNSLKPDDTAVYYCDSDHLSYRRRYEYWGQGTKVTVSS | low polyreactivity |
| QVQLVDSGGGLVQAGGSLRVSCAASGIIFYYNAMGWYRQAPGKEREFVASISSRGGSTYYADSVKGRFTISRDNSKNTVYLQMNSLKPEDTAVYYCAAAFDWRRQRYNYWGQGTQVTVTS | high polyreactivity |
| QVQLVDSGGGLVQAGGSLSLSCAASGSTFGYYSMGWYRESPGKERELVAAITWSGDSTYADSVKGRFTISRDNAKNTVYLQMNSLKPEDTAVYYCARRGFLGHWPRPSYDYWGQGTQVTVSS | low polyreactivity |
| QVQLVDSGGGLVQAGVSLRISCAASGIIIRYYGMGWYRQAPGKERELVARIRWTGGSTYYADSVKGRFTISRYNAKNTVYLQMNSLKQEETAVYYCAADIWQYSRIANSHPYDYWGQGTQVTVSS | low polyreactivity |
| QVQLVDSGGGLVQARGSLRLSCAASGYNFGNAMGWYRQPPGQEREFVAAISSSGSSTYYADSVKGRFTISRDNAKNTVYLQMNSLKPEDTAVYYCAKSRRSAAPKYDYWGQGTQVTVSS | high polyreactivity |
| QVQLVDSGGGLVQEGGSLRLSCAASGLTFYSNAMGWYRQARGKERELVARISTGGSTYADSVKGRFTISRDNAKNTVYLQMNSLKPEVTAVYYCAAEYNLRTYWGDYWGQGTQVTVSS | low polyreactivity |
| QVQLVDSGGGLVQEVGSLRLSCAASGSTFPFNAMGWYRQAPGKERELVATISGRGGSTYYADSVKGRFTISRDNAKNTVYLQMNSLKPEDTAVYYCAAEIHDRFDSWGQGTQVTVSS | low polyreactivity |
| QVQLVDSGGRLVQAGGSLRLSCAASGRIFVNNAMRWYRQAPGKERELVAAITRGGSTYYADSVKGRFTLSRDNAKNTVYLQMNSLKPEDTAVYYCDSDYQRNDFRWYDYWGQGTHVTVSS | low polyreactivity |
| QVQLVDSGGRLVQAGGSLRLSSPASGLIISAYAMGWYRQAPGKEMEFVAAISRSGGITYYADSVKGRFTISRDNAKNTVYLQMNSLKPEDTAVYYCNARLYDPTLKFGYWGQGTQVTVSS | high polyreactivity |

| Sequence | polyreactivity (PSR sort gate) |
| --- | --- |
| QVQLVDSGGVLVQAGGSLSLSCAASGITFPINAMGWYRQAPGKEREFVATISFSGASTYYADSVKGRFTISRDNAKNSVYLQMNSLKREDTAVYYCAARWKPPYWGRYYYWGQGTQVTVSS | high polyreactivity |
| QVQLVDSGRGLVQAGGSLRLSCAASGSIFYYNTMGWYRQAPVKERELVAAISSSDGSTYYADSVKGRFTISRDNAKNTVYLQMNSLKPEDTAVYYCNADLIYGEEYDYWGQGTQVTVSS | low polyreactivity |
| QVQLVDSVGGLVQAGGSLRLSCAASGFIFGRNSMGWYIQAPGKERELVAGISSRGGRTYYADSVKGRFTISRDNAKNTVYLQMNSLKPEDTAVYYCAAAGLTDYVRYDYWGQGTQVTVSS | high polyreactivity |
| QVQLVDSVGGLVQAGGSLRLSCAASGFTFGVNVMGWYRQEPGKEREFVAAITWSGDSTYYADSVKGRFTISRDNAKNTVYLQMNSLKPEDSAVYYCAADGNTWPADFLSYYFEFDEYWGQGTQVTVSS | low polyreactivity |
| QVQLVDSVGGLVQAGGSLRLSCAASGRIFRYYAMGWYRQAPRKERELVAAITWSGGSTYYADSVKGRFTISRDNAKNTVYLQMNSLKPEDTAVYYCNADSVYAGFDYWGQGTQVTVSS | low polyreactivity |
| QVQLVDTGGGLVQAGGSLRLSCAASGSTFYFNAMGWYRLAPGKERELVAAISYSGGSTYYADSVKGRFTISRDNAKNTVYFQMNSLKPEDTAVYYCNARGLKSYYPGYWFRGDDWGQGTQVTVSS | high polyreactivity |
| QVQLVEAGAGLVQAGGSLRLSCAASGGIFGQYTRGWSRHAPGKERELVAGISTSGGSTYYADSVKGRFTISRDYAKNTVYLQMNSLKPGDTAVYYCAAGSYRKRVTNYSYRTPYGYWGHGTQVTVSS | high polyreactivity |
| QVQLVEAGGGFVQAGGSLRLSCAASGFTFDYYAMGSYRQAHGKERELVAAITLNGGSTYYADSVKGRFTISRDNAKNTVYLQMNSLKPEDPAVYYCAADGSGYYDWYYYWGHGTQVTVSS | low polyreactivity |
| QVQLVEAGGGLVQAGGSLRLSCAASGFIFYGYMGWYIQAHGKERELVAAISYTGGSTYYADSVKGRFTISRDNAKNTVYLQMISLKPEDTAVYYCARDWRTKWFGYWGQGTQVTVSS | low polyreactivity |
| QVQLVEAGGGLVQAGGSLRLSCAASGIIFGFYAMGWYRQAPGKERELVAAITNDGGNTNYADSVKGRFTISRDNAKNTVYLQMNSLKPEDTAVYYCNADRTQDRTPYTYATFDYWGQGTQVTVSS | low polyreactivity |
| QVQLVEAGGGLVQAGGSLRLSCAASGPIFPLYAKGWYRQAPGKERELVAAISSGGTTYYADSVKGRFTISRDNAKNTVYLQMNSLKQEDTAVYYCARRPAQRLGRFDYWGQGTQVTVSS | low polyreactivity |
| QVQLVEAGGGLVQAGGSLRLSCAASGRTFSFNAMGCYRQAPGKERELVAAISRRGTSTYYADSVKGRFTISRDNAKNSVYLQMNSLKPEYTAVYYCAARSTYTRREYDYWGQGTQVTVSS | high polyreactivity |
| QVQLVEAGGGLVQAGGSLRLSCAASGSTFKRYAMGWYRQAPGKERELVASISSGGSTNYADSVKGRFTISRDNAKNTVYLQMNSLKPEDTAVDYCAVSYRSFRYYWERYYSWGQGTQVTVSS | high polyreactivity |
| QVQLVEAGGGLVQAGGSLRLSCAASGSTLVYNDMGWYRQAPGKEREFVAAIRSNDGSTYYADSVKGRFTISRDNAKNTVYLQMNSLKPEDTAVYFCNKDVWDGYDWPEFDYWGQGTQVTVSS | low polyreactivity |
| QVQLVEAGGGLVQAGGSLRLSCASSGSIITVYDMGWYRQPPGKERELVATITGSDGRTDYADSVKGRFTISRDNAKNTVYLQMNSLKPEDTAVYYCAAHVFQWKNRQSLLFDQGYYWGQGTQVTVSS | low polyreactivity |
| QVQLVEAGGGLVQAGGSLRLSGAASGRTFSLYAMGWYRQAPGKERELVAAITVSGGSTYYADSVKGRFTISRDNAKNTVYLQMNSLKPEDTAVYYCAAEGQPFRYYLLDYWGQGTQVTVSS | low polyreactivity |
| QVQLVEAGGGLVQAGGSLRLTCAASGSIISRYAMGWYRQAPGKEREFVAAISSSGGSTYYADSVKGRFTISRDNAKNTVDVQMNSLKPEDTAVYYCARYAYKVPIMGYWGQGTQVTVSS | high polyreactivity |
| QVQLVELGGGLVQAGGSLRLSCAASGRIFTHNAMGWYRQAPGKDRELVAAISYSGVSTYYADSVKGRFTISRDNAKNTVYLQMNSLKPEDTAVYYCARRYWYPDAFYRYDYWGQGTQVTVSS | low polyreactivity |
| QVQLVEPGGGLVQAGGSLRLSCAASGRTFYRYAMGWYRQAPGKERELVAAITWSGGRTYYADSVKGRFTMSRDYAKNTVYLQMNSLKPEDTAVYYCAADNSYRGYHSPYDYWGQGTQVTVSS | low polyreactivity |
| QVQLVERGGGLVQAGGSHRLSCAASGRIFPGYAKGWYRQAPGKELELVAAISRIGGDTYYADSVKGRFTISRDNAKNTVYLQMNSLKPEDTPVYYCAARYGRHRVSWYATWRYGYWGQGTQVTVSS | low polyreactivity |
| QVQLVESAAGLVLAGGSLRLSCAASGSIFRFYAMGWSRQAPGQERELVAGITLSGASTYYADSVKGRFTISRDNAKNTVYLQMNSLKPEDTAVYYCAKRYRLDGFYYWGQGTQVTVSS | high polyreactivity |
